These results are taken from patent US20250179197A1.

For assay [1], the target named is T1, IL-18 receptor (IL-18Rα and IL-18Rβ) on HEK-Blue IL-18 cells (UniProt Q13478).
T1 sequence (looked up) 1: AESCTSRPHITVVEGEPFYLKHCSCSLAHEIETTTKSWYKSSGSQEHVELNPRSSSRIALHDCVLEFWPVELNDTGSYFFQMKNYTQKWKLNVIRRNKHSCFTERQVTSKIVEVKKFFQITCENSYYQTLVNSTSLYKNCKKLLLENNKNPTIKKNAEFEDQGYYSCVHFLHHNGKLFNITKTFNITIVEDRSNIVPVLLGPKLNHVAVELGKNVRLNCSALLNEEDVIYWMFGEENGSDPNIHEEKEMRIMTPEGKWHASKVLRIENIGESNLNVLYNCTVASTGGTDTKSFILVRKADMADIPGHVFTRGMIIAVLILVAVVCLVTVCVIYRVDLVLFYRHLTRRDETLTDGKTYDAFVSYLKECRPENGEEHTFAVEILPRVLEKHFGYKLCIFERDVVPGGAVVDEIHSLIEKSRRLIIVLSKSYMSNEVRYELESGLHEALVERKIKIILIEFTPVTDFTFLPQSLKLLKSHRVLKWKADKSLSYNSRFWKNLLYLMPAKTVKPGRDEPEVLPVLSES
T1 sequence (looked up) 2: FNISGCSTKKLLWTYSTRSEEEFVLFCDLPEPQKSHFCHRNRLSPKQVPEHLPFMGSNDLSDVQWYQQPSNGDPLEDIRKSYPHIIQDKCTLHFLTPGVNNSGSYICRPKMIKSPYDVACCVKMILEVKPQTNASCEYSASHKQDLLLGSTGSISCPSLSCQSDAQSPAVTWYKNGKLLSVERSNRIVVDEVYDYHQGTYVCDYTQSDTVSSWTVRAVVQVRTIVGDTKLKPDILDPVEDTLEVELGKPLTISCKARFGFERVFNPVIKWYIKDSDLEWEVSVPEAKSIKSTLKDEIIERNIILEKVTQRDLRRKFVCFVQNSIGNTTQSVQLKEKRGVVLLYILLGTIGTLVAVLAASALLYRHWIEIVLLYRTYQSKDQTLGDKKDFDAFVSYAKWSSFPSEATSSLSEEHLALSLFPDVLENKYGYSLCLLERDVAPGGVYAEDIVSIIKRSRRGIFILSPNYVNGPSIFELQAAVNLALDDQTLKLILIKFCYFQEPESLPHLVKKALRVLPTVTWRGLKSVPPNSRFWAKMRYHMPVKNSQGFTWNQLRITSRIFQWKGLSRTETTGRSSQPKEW
The experiment in a line: cell-based or functional assay.

Assay [2] addresses T2, IL-18 receptor (IL-18Rα/IL-18Rβ) on human PBMCs (human) (UniProt Q13478).
T2 sequence (looked up) 1: T1 sequence (looked up) 1
T2 sequence (looked up) 2: T1 sequence (looked up) 2
In words: cell-based or functional assay.

Chain of Human IL-18 (Q14116 37-193 limits assumed): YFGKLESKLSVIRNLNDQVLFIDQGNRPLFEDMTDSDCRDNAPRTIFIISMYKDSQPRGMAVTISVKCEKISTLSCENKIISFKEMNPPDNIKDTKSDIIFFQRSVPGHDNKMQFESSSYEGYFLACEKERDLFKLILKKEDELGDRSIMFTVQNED

As to “Human IL-18 (from UniProt Q14116 37-193) (ligand)”, in assay [1], the HEK-Blue: Abs 405 at 100 nM is 2.6 absorbance and the HEK-Blue: Fold over background was 14.4 fold. Further, in assay [2], the Calculated maximum induction of IFN-γ after 24 hours, donor 1 is 42000; the Calculated maximum induction of IFN-γ after 24 hours, donor 2 is 5300; the Calculated maximum induction of IFN-γ after 24 hours, donor 3 was 89000; the Calculated maximum induction of IFN-γ after 24 hours, donor 4 was 69000. Moreover, in assay [2], the Calculated maximum induction of IFN-γ after 24 hours, donor 5 is 150000 and the Calculated maximum induction of IFN-γ after 24 hours, donor 6 was 28000.
